In patent US20040254099A1, “Compounds and methods for modulating beta-catenin mediated gene expression” (Adherex Technologies, Inc., priority 1999, published 2004):

System: retinoic acid receptor
Assay: Retinoic acid receptor dependent transactivation (retinoic acid β promoter-luciferase reporter)
Format: cell-based
Details: MCF-7 breast cancer cells transfected with reporter plasmid and wild-type or stable (S37A) mutant β-catenin; 9-cis retinoic acid, various doses, 48 hours
Method: FIG. 1 is a histogram depicting the enhancement of retinoic acid receptor-dependent transactivation by β-catenin. Luciferase activity, shown in relative light units, is illustrated for MCF-7 breast cancer cells transfected with the retinoic acid β promoter-luciferase reporter plasmid and a wild-type or a stable (S37A) mutant form of β-catenin (or vector alone, as a control) and treated with the indicated doses of 9-cis retinoic acid for 48 hours.
MCF-7 breast cancer cells were transfected with the retinoic acid β promoter-luciferase reporter plasmid and a wild-type or a stable (S37A) mutant form of β-catenin (see Orford et al., J. Biol. Chem. 272:24735-24738, 1997), and treated with various doses of 9-cis retinoic acid for 48 hours. The results, presented in FIG. 1, illustrate the activity of the reporter, measured in relative light units.

B1: β-catenin: cytoplasmic protein, expressed in cells by transfection as wild-type or stable (S37A) mutant form (protein, UniProt P35222 2-781, looked up)
Catenin beta-1: ATQADLMELDMAMEPDRKAAVSHWQQQSYLDSGIHSGATTTAPSLSGKGNPEEEDVDTSQVLYEWEQGFSQSFTQEQVADIDGQYAMTRAQRVRAAMFPETLDEGMQIPSTQFDAAHPTNVQRLAEPSQMLKHAVVNLINYQDDAELATRAIPELTKLLNDEDQVVVNKAAVMVHQLSKKEASRHAIMRSPQMVSAIVRTMQNTNDVETARCTAGTLHNLSHHREGLLAIFKSGGIPALVKMLGSPVDSVLFYAITTLHNLLLHQEGAKMAVRLAGGLQKMVALLNKTNVKFLAITTDCLQILAYGNQESKLIILASGGPQALVNIMRTYTYEKLLWTTSRVLKVLSVCSSNKPAIVEAGGMQALGLHLTDPSQRLVQNCLWTLRNLSDAATKQEGMEGLLGTLVQLLGSDDINVVTCAAGILSNLTCNNYKNKMMVCQVGGIEALVRTVLRAGDREDITEPAICALRHLTSRHQEAEMAQNAVRLHYGLPVVVKLLHPPSHWPLIKATVGLIRNLALCPANHAPLREQGAIPRLVQLLVRAHQDTQRRTSMGGTQQQFVEGVRMEEIVEGCTGALHILARDVHNRIVIRGLNTIPLFVQLLYSPIENIQRVAAGVLCELAQDKEAAEAIEAEGATAPLTELLHSRNEGVATYAAAVLFRMSEDKPQDYKKRLSVELTSSLFRTEPMAWNETADLGLDIGAQGEPLGYRQDDPSYRSFHSGGYGQDALGMDPMMEHEMGGHHPGADYPVDGLPDLGHAQDLMDGLPPGDSNQLAWFDTDL
  activity of the reporter (luciferase activity, relative light units): augment the activity of the reporter
